Assay [1] addresses glycosylated 30mer MUC1 peptide. As to the kind of experiment: ELISA, 10 µg/ml antibody; reference is the non-glycosylated 30mer. A general note: An ELISA detects its analyte on a solid surface through an enzyme-linked reagent.
Assay [2] deals with TR5, non-glycosylated MUC1 peptide […]n with n=5. As to the kind of experiment: ELISA, 10 µg/ml antibody; reference is TR1 (SEQ ID NO: 72).
Assay [3] deals with glycosylated 30mer MUC1 peptide. As to the kind of experiment: ELISA of Example 5.1; reference is the non-glycosylated 30mer.

Three substances from patent US20150005474A1 can be followed below.

Sequence of glycosylated 30mer MUC1 peptide (peptide, as listed by the source): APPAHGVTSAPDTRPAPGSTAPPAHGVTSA
Sequence of TR5, non-glycosylated MUC1 peptide […]n with n=5 (peptide, as listed by the source): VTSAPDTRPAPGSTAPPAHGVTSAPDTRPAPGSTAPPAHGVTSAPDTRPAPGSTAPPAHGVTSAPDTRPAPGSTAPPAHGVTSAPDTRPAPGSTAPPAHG

Take C595 (antibody): in assay [1], the factor (ratio of glycosylated/non-glycosylated peptide) is less than 1.2. Further, the factor (ratio of the signal with TR5 peptide to that with TR1 peptide) in assay [2] was 1.1.

On to HMFG-1 (antibody), for which the factor (ratio of glycosylated/non-glycosylated peptide) in assay [1] was less than 1.2.

With SM3 (antibody), the factor (ratio of glycosylated/non-glycosylated peptide) in assay [1] is less than 1.2. The substance further came in with a factor (glycosylated against non-glycosylated peptide) in assay [3] of 1.5. In addition, the factor (ratio of the signal with TR5 peptide to that with TR1 peptide) in assay [2] amounted to 2.1.
